Legend:
[1] = target: T1, …; test: SPOT length analysis, dot 4, HRP-S-protein detection
T1 sequence (peptide): RIFRSSDFAKNFVQ

[2] = target: T2, …; test: SPOT length analysis, dot 10, HRP-S-protein detection
T2 sequence (peptide): RSSDFAKNFVQTD

[3] = target: T3, …; test: SPOT length analysis, dot 14, HRP-S-protein detection
T3 sequence (peptide): RSSDFAKNFVQT

[4] = target: T4, …; test: SPOT length analysis, dot 15, HRP-S-protein detection
T4 sequence (peptide): SSDFAKNFVQTD

[5] = target: T5, …; test: SPOT length analysis, dot 18, HRP-S-protein detection
T5 sequence (peptide): FRSSDFAKNFV

[6] = target: T6, …; test: SPOT length analysis, dot 21, HRP-S-protein detection
T6 sequence (peptide): SDFAKNFVQTD

[7] = target: T7, …; test: SPOT length analysis, dot 23, HRP-S-protein detection
T7 sequence (peptide): IFRSSDFAKN

[8] = target: T8, …; test: SPOT length analysis, dot 24, HRP-S-protein detection
T8 sequence (peptide): FRSSDFAKNF

[9] = target: T9, …; test: SPOT length analysis, dot 29, HRP-S-protein detection
T9 sequence (peptide): RIFRSSDFA

[10] = target: T10, …; test: SPOT length analysis, dot 33, HRP-S-protein detection
T10 sequence (peptide): SSDFAKNFV

[11] = target: T11, …; test: SPOT length analysis, dot 34, HRP-S-protein detection
T11 sequence (peptide): SDFAKNFVQ

IFRSSDF = target: T12, IFRSSDF; test: SPOT length analysis, dot 47, HRP-S-protein detection
T12 sequence (peptide): IFRSSDF

FRSSDFA [12] = target: T13, FRSSDFA; test: SPOT length analysis, dot 48, HRP-S-protein detection
T13 sequence (peptide): FRSSDFA

RSSDFAK = target: T14, RSSDFAK; test: SPOT length analysis, dot 49, HRP-S-protein detection
T14 sequence (peptide): RSSDFAK

SSDFAK = target: T15, SSDFAK; test: SPOT length analysis, dot 60, HRP-S-protein detection
T15 sequence (peptide): SSDFAK

[13] = target: T16, …; test: SPOT length analysis, dot 7, anti-histidine detection
T16 sequence (peptide): RIFRSSDFAKNFV

RSSD = target: T17, RSSD; test: SPOT length analysis, dot 82, HRP-S-protein detection
T17 sequence (peptide): RSSD

SDFA [14] = target: T18, SDFA; test: SPOT length analysis, dot 84, HRP-S-protein detection
T18 sequence (peptide): SDFA

KNFV = target: T19, KNFV; test: SPOT length analysis, dot 88, HRP-S-protein detection
T19 sequence (peptide): KNFV

FVQT = target: T20, FVQT; test: SPOT length analysis, dot 90, HRP-S-protein detection
T20 sequence (peptide): FVQT

[15] = target: T2, …; test: SPOT length analysis, dot 10, anti-histidine detection
[16] = target: T21, …; test: SPOT length analysis, dot 17, anti-histidine detection
T21 sequence (peptide): IFRSSDFAKNF

[17] = target: T22, …; test: SPOT length analysis, dot 20, anti-histidine detection
T22 sequence (peptide): SSDFAKNFVQT

[18] = target: T23, …; test: SPOT length analysis, dot 25, anti-histidine detection
T23 sequence (peptide): RSSDFAKNFV

[19] = target: T24, …; test: SPOT length analysis, dot 27, anti-histidine detection
T24 sequence (peptide): SDFAKNFVQT

[20] = target: T10, …; test: SPOT length analysis, dot 33, anti-histidine detection
[21] = target: T25, …; test: SPOT length analysis, dot 35, anti-histidine detection
T25 sequence (peptide): DFAKNFVQT

[22] = target: T26, sortilin peptide … on SPOT membrane; test: SPOT length analysis, dot 36, anti-histidine detection
T26 sequence (peptide, C-terminus anchored to the cellulose membrane through a beta-alanine linker): FAKNFVQTD

FRSSDFAK = target: T27, FRSSDFAK; test: SPOT length analysis, dot 39, anti-histidine detection
T27 sequence (peptide): FRSSDFAK

FAKNFVQT = target: T28, FAKNFVQT; test: SPOT length analysis, dot 44, anti-histidine detection
T28 sequence (peptide): FAKNFVQT

FRSSDFA [23] = target: T13, FRSSDFA; test: SPOT length analysis, dot 48, anti-histidine detection
SSDFAKN = target: T29, SSDFAKN; test: SPOT length analysis, dot 50, anti-histidine detection
T29 sequence (peptide): SSDFAKN

AKNFVQT = target: T30, AKNFVQT; test: SPOT length analysis, dot 54, anti-histidine detection
T30 sequence (peptide): AKNFVQT

AKNFVQ = target: T31, AKNFVQ; test: SPOT length analysis, dot 64, anti-histidine detection
T31 sequence (peptide): AKNFVQ

RIFRS = target: T32, RIFRS; test: SPOT length analysis, dot 67, anti-histidine detection
T32 sequence (peptide): RIFRS

IFRS = target: T33, IFRS; test: SPOT length analysis, dot 80, anti-histidine detection
T33 sequence (peptide): IFRS

SDFA [24] = target: T18, SDFA; test: SPOT length analysis, dot 84, anti-histidine detection

- BLU Sprotein [1]: 172000 BLU
- BLU Sprotein [2]: 20700 BLU
- BLU Sprotein [3]: 24600 BLU
- BLU Sprotein [4]: 22400 BLU
- BLU Sprotein [5]: 448000 BLU
- BLU Sprotein [6]: 16900 BLU
- BLU Sprotein [7]: 29800 BLU
- BLU Sprotein [8]: 70400 BLU
- BLU Sprotein [9]: 60900 BLU
- BLU Sprotein [10]: 19000 BLU
- BLU Sprotein [11]: 18900 BLU
- BLU Sprotein (IFRSSDF): 27800 BLU
- BLU Sprotein (FRSSDFA [12]): 17200 BLU
- BLU Sprotein (RSSDFAK): 16400 BLU
- BLU Sprotein (SSDFAK): 15900 BLU
- BLU His [13]: 102000 BLU
- BLU Sprotein (RSSD): 14900 BLU
- BLU Sprotein (SDFA [14]): 13300 BLU
- BLU Sprotein (KNFV): 13800 BLU
- BLU Sprotein (FVQT): 13600 BLU
- BLU His [15]: 19800 BLU
- BLU His [16]: 40700 BLU
- BLU His [17]: 16700 BLU
- BLU His [18]: 23000 BLU
- BLU His [19]: 17500 BLU
- BLU His [20]: 18900 BLU
- BLU His [21]: 19100 BLU
- BLU His [22]: 30800 BLU
- BLU His (FRSSDFAK): 19000 BLU
- BLU His (FAKNFVQT): 80400 BLU
- BLU His (FRSSDFA [23]): 16600 BLU
- BLU His (SSDFAKN): 16700 BLU
- BLU His (AKNFVQT): 17300 BLU
- BLU His (AKNFVQ): 15600 BLU
- BLU His (RIFRS): 115000 BLU
- BLU His (IFRS): 51100 BLU
- BLU His (SDFA [24]): 14200 BLU
B1: recombinant his-S-tagged pro-domain of human BDNF (residues Ala1-Arg110), from pET-30 Xa/LIC, E. coli (protein, not shown: small tags and cut ends)
chain: APMKEANIRGQGGLAYPGVRTHGTLESVNGPKAGSGLTSLADTFEHVIEELLDEDQKVRPNEENNKDADLYTSRVMLSSQVPLEPPLLFLLEEYKNYLDAANMSMRVRR
